One substance from US20230304012A1 can be followed below.

The target in assay [1] is full length MuSK (wild type mouse, on primary myotubes) (mouse) (UniProt Q61006). Put plainly: cell-based or functional assay.
Assay [2] addresses ΔIg3-MuSK (mouse, on primary myotubes from ΔIg3-MuSK mice) (mouse) (UniProt Q61006). Put plainly: cell-based or functional assay.

Take BMP4 (ligand): the Wnt11 transcription (qRT-PCR), fold increase after 25 ng/mL BMP4 for 2 hours in primary myotubes is 5.8 fold in assay [1] and 2.6 fold in assay [2].
